Here are results for 1 substance from article PMC4657913.

Bounds are passed on as bounds.

This assay deals with RHDV VPg fused to the VN155 (I152L) fragment for BiFC (Rabbit hemorrhagic disease virus (RHDV) strain CHA/JX/97). In words: split reporter (BiFC, NanoBiT); BiFC in RK-13 cells, pVPg-VN and peIF4E-VC; green fluorescence quantified by flow cytometry 48 h after transfection. (In flow cytometry, cells or beads pass a laser one at a time.)

Regarding “eIF4E fused to the VC155 fragment for BiFC (from UniProt P29338 1-217) (natural protein)”, the BiFC signal-to-noise (ratio between the treatment and control groups) is more than 3.
